Data reported in patent US20210403578A1 (published 2021).

T1: Fz8-CRD (UniProt Q9H461 32-151, fluorescence-conjugated)
T1 chain: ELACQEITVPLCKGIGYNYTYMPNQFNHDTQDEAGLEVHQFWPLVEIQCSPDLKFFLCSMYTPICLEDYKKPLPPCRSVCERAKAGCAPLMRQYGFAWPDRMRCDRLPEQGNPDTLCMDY

B1: scFv(Onco)-DKK1c (other)
chain: MLLVNQSHQGFNKEHTSKMVSAIVLYVLLAAAAHSAFAADPIELTQPPSVSVAPGQTARISCSGDNIGSFYVHWYQQKPGQAPVLVIYDKSNRPSGIPERFSGSNSGNTATLTISGTQAEDEADYYCQSYANTLSLVFGGGTKLTVLGTTAASGSSGGSSSGAEVQLVESGGGLVQPGGSLRLSCAASGFTFSHYTLSWVRQAPGKGLEWVSVISGDGSYTYYADSVKGRFTISSDNSKNTLYLQMNSLRAEDTAVYYCARNFIKYVFANWGQGTLVTVSGSGSGKMYHTKGQEGSVCLRSSDCASGLCCARHFWSKICKPVLKEGQVCTKHRRKGSHGLEIFQRCYCGEGLSCRIQKDHHQASNSSRLHTCQRHHHHHHH
B2: Fzd8-CRD (receptor)
chain: T1 chain
modifications: fluorescence-conjugated

Assays:
Fzd1CRD = assay: SPR
Fzd5CRD = assay: SPR
Fzd7CRD = assay: SPR
Fz8-CRD = target: T1, Fz8-CRD; assay: SPR
Fz27C49 = assay: yeast surface titration
Fz27C3 = assay: yeast surface titration

Binder | Kd (Fzd1CRD) | Kd (Fzd5CRD) | Kd (Fzd7CRD) | Kd (Fz8-CRD) | Kd (Fz27C49) | Kd (Fz27C3)
B1 | 1100 pM | 750 pM | 820 pM | 1400 pM | – | –
B2 | – | – | – | – | ~92 pM | ~122 pM
